Data as given in US20240417440A1 (published 2024).

Experiments:
[1] = biological target: T1, NY-ESO-1 peptide on HLA-A*02:01 (human); assay: cytokine release
T1 peptide: FTVSGNILTI

[2] = biological target: T2, NY-ESO-1 peptide on HLA-A*02:01 (human); assay: cytokine release
T2 peptide: RLLEFYLAM

[3] = biological target: T3, NY-ESO-1/LAGE-1 peptide on HLA-A*02:01 (human); assay: multimer staining
T3 peptide: SLLMWITQC

- binding result [1]: no recognition
- binding result [2]: no recognition
- binding result [3]: recognises
B1: T11.8-10-17 (TCR, V domains shown)
Valpha: QKEVEQNSGPLSVPEGAIASLNCTYSDRGSQSFFWYRQYSGKSPELIMFIYSNGDKEDGRFTAQLNKASQYVSLLIRDSQPSDSATYLCAADDKIIFGKGTRLHILP
Vbeta: DAGVIQSPRHEVTEMGQEVTLRCKPISGHDYLFWYRQTMMRGLELLIYFNNNVPIDDSGMPEDRFSAKMPNASFSTLKIQPSEPRDSAVYFCASSRGGSGYTFGSGTRLTVV
